Results on nine substances are retold here after US7169889B1, “Insulin prodrugs hydrolyzable in vivo to yield peglylated insulin” (priority 1999, dated 2007).

Like-named read-outs stand apart in the source and are kept apart here.

One data set relates to pancreatectomized dogs. The data set can be described thus: Oral activity in pancreatectomized diabetic dogs (plasma glucose and insulin). In kind it is in vivo. The note with it: for Dmax: microemulsion, N = 2. On the procedure:
Two dogs were used for each compound. Compounds are formulated in water in oil microemulsion and evaluated at a dose of 1-2 mg/kg. Twenty milliliters of the formulation was administered orally to each dog and the formulations were chased with 20 ml of water. Plasma glucose and insulin levels were monitored at different time intervals.

Data set [1] deals with male CF-1 mice. Description: Mouse blood glucose assay (potency evaluation). In kind it is in vivo. The note with it: for Potency: subcutaneous injection, blood glucose 30 minutes post-dose, calculated relative to bovine insulin standard curve. On the procedure: Six paired dose groups of 5 male CF-1 mice (˜25 g unfasted) received subcutaneous injections of either bovine insulin or modified insulin. Pre- and post-experimental baselines were established with two vehicle groups. An additional 25 μg/kg insulin dose group served as the internal control. Mice were terminally bled 30 minutes post-dose and blood glucose was measured with a glucometer (ONE TOUCH®). The biological potency of the modified insulin was then calculated relative to a bovine insulin standard curve.

For data set [2], the system named is male CF-1 mice. The note with it: bovine insulin standard; assumed potency used for calculations; cited from earlier work.

In the data set on pancreatectomized dogs (oral, dose 1 mg/kg), “PEG3-oleate-insulin conjugate: insulin conjugated with hydrolyzable triethylene glycol oleate oligomer, in microemulsion” yielded a Dmax of 49%. On to “Insulin PEG9 Stearate: insulin mono-conjugated with hydrolyzable PEG9 stearate ester oligomer”, for which, in the data set on male CF-1 mice [1], the Potency is 15.3 IU/mg.

Regarding Galactosamine-PEG14-insulin conjugate, in the data set on pancreatectomized dogs (oral, dose 2 mg/kg), the Dmax turned out to be 52%.

Regarding “Bovine insulin: bovine insulin standard, assumed potency 27.5 IU/mg”, the Potency with male CF-1 mice [2] was 27.5 IU/mg. Regarding “Insulin PEG9 Oleate: insulin mono-conjugated with hydrolyzable PEG9 oleate ester oligomer”, in the data set with male CF-1 mice [1], the Potency is 19.0 IU/mg. On the same count and under the same terms, the value for “Insulin PEG9 Hexanoate: insulin mono-conjugated with hydrolyzable PEG9 hexanoate ester oligomer” was 21.3 IU/mg. Consider “PEG3-insulin: methyl triethylene glycol insulin conjugates formulated in microemulsion”, for which, in the data set on pancreatectomized dogs (dog, in vivo, po, 2 mg/kg), the Cmax is listed as 181 μU/ml. Besides, the “glucose reduction, in words” value in the data set with pancreatectomized dogs (oral, formulated in microemulsion, pancreatectomized dogs) was “good glucose reduction”. In addition, the Dmax in the data set with pancreatectomized dogs (oral, dose 2 mg/kg) was 62%.

For the substance “Insulin PEG10 Oleyl Ether: nonhydrolyzable insulin mono-conjugate with PEG10 oleyl ether oligomer”, the Potency in the data set on male CF-1 mice [1] is 0.0 IU/mg. In the case of “Insulin PEG3 Methyl Ether: insulin mono-conjugated with methyl triethylene glycol”, the “in vivo biological activity (potency assay), in words” value in the data set with male CF-1 mice [1] (mouse blood glucose assay, Table 2) is “best result”. Besides, the Potency with male CF-1 mice [1] is 43.6 IU/mg.
